# In patent US20250144228A1, “NANOBODY-DRUG ADDUCTS AND USES THEREOF” (priority 2022, published 2025):
# T1: MICB-transfected B16F10 cells (Homo sapiens, UniProt Q29980)
# T1 construct: expressed in transfected cells; host or cells: B16F10 mouse melanoma cells
# T1 sequence (Q29980 23-383): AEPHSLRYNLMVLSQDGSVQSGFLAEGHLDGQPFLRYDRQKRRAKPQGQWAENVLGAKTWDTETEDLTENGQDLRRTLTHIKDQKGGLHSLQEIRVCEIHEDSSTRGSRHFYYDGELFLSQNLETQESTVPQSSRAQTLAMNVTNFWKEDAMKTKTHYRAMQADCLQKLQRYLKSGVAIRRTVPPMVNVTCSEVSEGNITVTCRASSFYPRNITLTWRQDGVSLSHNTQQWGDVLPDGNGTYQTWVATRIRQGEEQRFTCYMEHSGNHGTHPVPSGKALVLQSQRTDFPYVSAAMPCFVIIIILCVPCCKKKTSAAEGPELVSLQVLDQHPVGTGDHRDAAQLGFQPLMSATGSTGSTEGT
# T2: MICA-transfected B16F10 cells (Homo sapiens, UniProt Q29983)
# T2 construct: expressed in transfected cells; host or cells: B16F10 mouse melanoma cells
# T2 sequence (Q29983 24-383): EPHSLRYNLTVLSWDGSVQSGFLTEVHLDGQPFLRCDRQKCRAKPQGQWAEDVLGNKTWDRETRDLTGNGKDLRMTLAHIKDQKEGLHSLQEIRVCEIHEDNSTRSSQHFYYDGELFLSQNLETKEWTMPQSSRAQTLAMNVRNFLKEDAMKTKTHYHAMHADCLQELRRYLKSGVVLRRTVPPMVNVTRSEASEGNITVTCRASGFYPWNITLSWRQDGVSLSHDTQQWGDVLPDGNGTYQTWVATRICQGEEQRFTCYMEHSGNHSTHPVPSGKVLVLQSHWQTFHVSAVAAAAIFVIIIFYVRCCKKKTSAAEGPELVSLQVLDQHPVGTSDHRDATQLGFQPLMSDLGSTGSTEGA
# Experiments:
# MICA*008 = MICA*008 (Homo sapiens, UniProt Q29983, C59Y/G229S/K148E/K196E/M152V/Q274R/S238T/T236I/T47A/W233R); type: binding
# MICA*002 = MICA*002 (Homo sapiens, UniProt Q29983, K148E/T47A/W37G); type: binding
# [1] = system: empty vector (EV)-transfected B16F10 cells; type: binding; conditions: biotinylated, streptavidin-PE
# MICA*009 = type: binding, human
# [2] = system: purified MICA*009 antigen in whole cell lysate; experiment: Immunoblot with biotinylated anti-MICA nanobodies; type: binding, human; conditions: 1 μg/mL, streptavidin-HRP
# [3] = target: T1, MICB-transfected B16F10 cells; experiment: Flow cytometry of transfected B16F10 melanoma cells; type: binding; conditions: biotinylated, streptavidin-PE
# Source text: (§1) FIGS. 17A-17E: Development of MHC class I polypeptide-related sequence A (MICA)-specific nanobodies. FIG. 17A: Comparison of amino acid sequences of 9 MICA-specific nanobodies that were identified and cloned into a pHen6 expression vector. FIG. 17B: Immunoblots showing specific binding of biotinylated A1 and H3 anti-MICA nanobody clones for purified MICA*009 antigen in whole cell lysate. FIG. 17C: Quantification of ELISA cross-competition assays to determine binding epitopes for anti-MICA nanobodies. A decrease in intensity measured at 450 nm as compared to a single nanobody alone is indicative of binding to the same epitope. Cross-competition is shown for A1 (left) and H3 (right) anti-MICA nanobody clones. FIG. 17D: Quantification of anti-MICA nanobody binding to MICA allelic products as determined by ELISA. A significant increase in intensity measured at 450 nm as compared to uncoated ELISA control is indicative of binding. FIG. 17E: Flow cytometry of B16F10 cells transfected with empty vector, MICA, or MHC class I polypeptide-related sequence B (MICB) using A1 and H3 anti-MICA nanobody clones.
# (§2) To further assess whether the isolated anti-MICA VHH nanobodies would bind to MICA on the surface of cells, A1 and H3 nanobody clones were generated against soluble, recombinant MICA*009 and cell binding was assessed by flow cytometry. Binding was assessed using B16F10 melanoma cells transfected to express either MICA or MICB, or an empty vector (EV) as a negative control. Biotinylated A1 and H3 nanobodies were labeled with streptavidin-phycoerythrin (PE) and used for cytofluorimetry of transfected B16F10 cells.
# [4] = target: T2, MICA-transfected B16F10 cells; experiment: as above; type: binding; conditions: biotinylated, streptavidin-PE
# Source text: as §1, §2
# [5] = target: influenza A hemagglutinin
# [6] = system: P. falciparum merozoite surface protein 1 (MSP-1) subunits p83, p38, p42; experiment: ELISA of biotinylated VHHs on plate-bound MSP-1 subunits; type: binding, Plasmodium falciparum; conditions: streptavidin-HRP and TMB
# Method: (§3) FIGS. 13A-13D: VHH nanobodies bind specifically to Plasmodium falciparum: merozoite surface protein 1 (MSP-1). FIG. 13A: Schematic of the PfMSP-1 pro-peptide and the four inclusive subunits: p83, p30, p38, and p42. FIG. 13B: Purified […] B4, anti-p38 B8, anti-p42 A6, and anti-p42 G11 VHHs were biotinylated and these VHHs were incubated with plate bound subunits proteins as indicated. Binding ELISA was detected by using streptavidin-HRP and tetramethylbenzidine (TMB). Data are represented as optical density (OD). Error bars show SEM. FIG. 13C: Western blot of VHHs against the three PfMSP-1 subunits, the full length p190 pro-peptide, and some 3D7 lysates from −38-44 hour 3D7 schizonts. FIG. 13D: Flow cytometry on synchronized ˜38-44 hour 3D7 schizonts using fluorescently (Cy5) labeled VHHs.
# (§4) Purified VHH nanobodies were biotinylated and tested for specificity toward isolated MSP-1 subunits. Anti-p83 B4, anti-p38 B8, anti-p42 A6, and anti-p42 G11 VHHs were each incubated with plate-bound p83, p38, p42, and p42, and binding to the plates was detected by an enzyme-linked immunoassay (ELISA) using streptavidin-horseradish peroxidase (HRP) and tetramethylbenzidine (TMB). […] Finally, purified VHHs were tested against live ˜38-44 hour 3D7 schizonts in a flow cytometry assay.
# [7] = system: PfMSP-1 subunits, full length p190 pro-peptide; type: binding, Plasmodium falciparum
# Method: as §3, with “FIG.” for “FIGS. 13A-13D: VHH nanobodies bind specifically to Plasmodium falciparum: merozoite surface protein 1 (MSP-1). FIG.”
# as §4
# MICA*008, sequence (Q29983 24-307 T47A/C59Y/K148E/M152V/K196E/G229S/W233R/T236I/S238T/Q274R): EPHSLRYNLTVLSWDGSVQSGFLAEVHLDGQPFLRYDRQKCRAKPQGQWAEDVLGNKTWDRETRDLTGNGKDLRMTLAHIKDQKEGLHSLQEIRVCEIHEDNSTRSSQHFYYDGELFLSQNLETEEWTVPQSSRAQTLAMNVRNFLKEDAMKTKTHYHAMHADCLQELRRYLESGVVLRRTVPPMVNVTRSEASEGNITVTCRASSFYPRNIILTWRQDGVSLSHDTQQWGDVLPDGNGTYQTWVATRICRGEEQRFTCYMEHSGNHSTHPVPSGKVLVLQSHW
# MICA*002, sequence (Q29983 24-307 W37G/T47A/K148E): as the sequence (Q29983 24-307 T47A/C59Y/K148E/M152V/K196E/G229S/W233R/T236I/S238T/Q274R) above, with W14G, Y36C, V129M, E173K, S206G, R210W, I213T, T215S, R251Q counted along it
molecule,measurement,setting,value
"A1: VHH specific for MICA, SEQ ID NO: 19 (protein) VHH: MAQVQLVESGGGLVQPGGSLRLSCAASGFTLDYYDIGWFRQAPGKEREGVSCITSSDGSTYYADSVKGRFTISRDNAKNTVYLQMNSLKPEDTAVYYCAADCTKPQWKSKTEAWGQGTQVTVSSGGLPETGGHHHHHH",binding to MICA variant (ELISA),MICA*008,observed to bind
same,binding to MICA variant (ELISA),MICA*002,not observed to bind
same,staining of transfected cells,[1],neither nanobody clone stained
same,binding to MICA variant (ELISA),MICA*009,observed to bind
same,luminescent signal on immunoblots,[2],strong and specific luminescent signal
same,staining of transfected cells,[3],neither nanobody clone stained
same,staining of transfected cells,[4],robust staining
"H3: VHH specific for MICA, SEQ ID NO: 24 (protein) VHH: MAQVQLVETGGGLVQAGGSLRLSCAASGRTFSSYAMGWFRQAPGKEREFVAGISWSGGSTYYGDSVKGRFTISRDNAKNTVYLLMNSLKPEDTAVYYCAADLVRSYGSSWPSLFQFRNPEDVQDGMDYWGKGTLVTVSSGGLPETGGHHHHHH",binding to MICA variant (ELISA),MICA*008,observed to bind
same,binding to MICA variant (ELISA),MICA*002,not observed to bind
same,staining of transfected cells,[1],neither nanobody clone stained
same,binding to MICA variant (ELISA),MICA*009,observed to bind
same,luminescent signal on immunoblots,[2],strong and specific luminescent signal
same,staining of transfected cells,[3],neither nanobody clone stained
same,staining of transfected cells,[4],robust staining
"genetically fused VHHkappa-SD36: VHHkappa N-terminally linked to SD36 by (GGGGS)3 linker, SEQ ID NO: 5 (protein) QVQLVESGGGWVQPGGSLRLSCAASGFTFSDTAMMWVRQAPGKGREWVAAIDTGGGYTYYADSVKGRFTISRDNAKNTLYLQMNSLKPEDTARYYCAKTYSGNYYSNYTVANYGTTGRGTLVTVSSAAAGGGGSGGGGSGGGGSEVQLVESGGGLVQAGGSLKLSCAASGRTYAMGWFRQAPGKEREFVAHINALGTRTYYSDSVKGRFTISRDNAKNTEYLEMNNLKPEDTAVYYCTAQGQWRAAPVAVAAEYEFWGQGTQVTVSSGGLPETGGHHHHHH","affinity for influenza A hemagglutinin, in words",[5],low nanomolar
"anti-p42 A6: VHH specific for P. falciparum MSP-1 p42, SEQ ID NO: 7 (protein) VHH: QVQLVESGGGLVQAGGSLRLSCAASARTFSYYGAAWFRQAPGKEREFVAAVSWNGDDTYYADSVKGRFTISRDNTKNTVSLQMNALKPEDTAVYYCEAAAYGRDWRQSANYVYWGQGTQVTVSSLPETGGHHHHHH",binding to plate-bound MSP-1 subunits (ELISA),[6],bind specifically to one subunit
same,binding to MSP-1 subunits and pro-peptide p190 (gel electrophoresis / Western blot),[7],"bind to one subunit of MSP-1 and to the MSP-1 pro-peptide (p190), but not to any other subunit"
"anti-p42 G11: VHH specific for P. falciparum MSP-1 p42, SEQ ID NO: 16 (protein) VHH: QVQLVETGGGLVQAGGSLRLSCVVSGRSLILYGMGWFRQAPGKEREFVAGIVWNGGWTYYADSVKGRFTISRDTAKNTVYLQMNSLKPEDTAVYSCAAGPGDGRRRVAPAEYNYWGQGTQVTVSSLPETGGHHHHHH",binding to plate-bound MSP-1 subunits (ELISA),[6],bind specifically to one subunit
same,binding to MSP-1 subunits and pro-peptide p190 (gel electrophoresis / Western blot),[7],"bind to one subunit of MSP-1 and to the MSP-1 pro-peptide (p190), but not to any other subunit"
VHHkappa-SD36 conjugated through click chemistry: SD36-azide conjugated to VHHkappa-DBCO through copper-free click reaction (protein) VHH 1: QVQLVESGGGWVQPGGSLRLSCAASGFTFSDTAMMWVRQAPGKGREWVAAIDTGGGYTYYADSVKGRFTISRDNAKNTLYLQMNSLKPEDTARYYCAKTYSGNYYSNYTVANYGTTGRGTLVTVSSGG VHH 2: EVQLVESGGGLVQAGGSLKLSCAASGRTYAMGWFRQAPGKEREFVAHINALGTRTYYSDSVKGRFTISRDNAKNTEYLEMNNLKPEDTAVYYCTAQGQWRAAPVAVAAEYEFWGQGTQVTVSSGG,"affinity for influenza A hemagglutinin, in words",[5],low nanomolar
same,affinity relative to genetically conjugated VHHkappa-SD36,[5],higher affinity
"B11: VHH specific for MICA, SEQ ID NO: 20 (protein) VHH: MAQVQLVETGGGLVQPGGSLRLSCAASGFTLDYYAIGWFRQAPGKEREGVSCITSDGNTYYADSVKGRFTISRDNAKNTVYLQMNSLKPEDTAVYYCAADCLSSTWRTNAYLGQGTQVTVSSGGLPETGGHHHHHH",binding to MICA variant (ELISA),MICA*008,observed to bind
same,binding to MICA variant (ELISA),MICA*002,not observed to bind
same,binding to MICA variant (ELISA),MICA*009,observed to bind
"E9: VHH specific for MICA, SEQ ID NO: 23 (protein) VHH: MAQVQLVETGGGLVQPGGSLRLSCAASGFTLEHYAIGWFRQAPGKEQEGVSCITSDGDTYYADSVKGRFTISRDNAKNTVYLQMNSLKPEDTAVYYCAADCLSSNWRTSAYWAQGTQVTVSSGGLPETGGHHHHHH",binding to MICA variant (ELISA),MICA*008,observed to bind
same,binding to MICA variant (ELISA),MICA*002,not observed to bind
same,binding to MICA variant (ELISA),MICA*009,observed to bind
